Data reported in patent US7037663B2, “Human zona pellucida protein 3 and uses thereof” (Eastern Virginia Medical School, priority 1998, dated 2006).
Where “and” joins values, the source holds several entries; their conditions need not be identical. Equal entries are not always repeated.

Key:
[1] = system: sperm-zona pellucida binding; conditions: Dong et al 2000; cited from earlier work
[2] = system: sperm-zona pellucida binding; assay: Hemizona assay (HZA), competitive inhibition of sperm-zona binding, first series; assay type: cell-based, human
Text: An inverted, phase-contrast microscope equipped with a micromanipulation system was routinely employed to cut the oocyte into halves to obtain matching hemizonae. Oocytes used in the experiments were obtained from surgically-removed ovarian tissue or discarded from IVF therapy under approval of the Institutional Review Board at Eastern Virginia Medical School. The hemizonae were washed in PBS to completely deplete the cytoplasm. Sperm samples were from healthy fertile donors. A swim-up procedure was applied to obtain motile sperm, which were then adjusted to 0.5 million/ml in Human Tubal Fluid (HTF) supplemented with 0.3% Human Serum Albumin (HSA) for hemizona assay. In one Petri dish, one droplet of 100 ul of sperm suspension was placed as a control. Another droplet of sperm was pre-treated with rhZP3. One hemizona was placed into the control droplet and the matching hemizona was placed in the sperm droplet treated with rhZP3. Five pairs of hemizona were used for each experiment. All dishes were incubated at 37° C., 5% CO2 for 4 hours. Each hemizona was removed and rinsed 15 times in PBS, and transferred to the counting dish. The number of sperm bound to the surface of each hemizona was counted under phase microscopy. The HZI was calculated to evaluate rhZP3-binding activity (competitive inhibition) as follows: number of sperm bound for treatment/number of sperm bound for control×100.

human sperm [3] = assay: Acrosome reaction of live sperm by FITC-PSA, second series; assay type: cell-based
Description: Determination of the acrosome reaction—The proportion of live acrosome-reacted spermatozoa incubated under capacitating conditions was determined with the fluorescent probe fluorescein isothiocyanate-labeled Pisum Sativum Agglutinin (FITC-PSA, Sigma) after staining with a supravital stain (Hoechst 33258, Sigma) following established techniques (12,13). At least 200 sperm per sample were evaluated in duplicate at 600× magnification using an epifluorescence microscope equipped with phase-contrast optics (Optiphot; Nikon, Melville, N.Y.). Slides were coded and read in a blind fashion.
A calcium ionophore agent (A23187, Sigma) tested at 5 μM and human acid solubilized zona pellucida tested at a final concentration of 4 zona/10 μl were used as positive controls (20). In further experiments, the acrosomal status was assessed by transmission electron microscopy. Spermatozoa were fixed by mixing sperm suspensions with equal volumes of 2% (v/v) glutaraldehyde (in 3 mM CaCl2 and 0.1 M sodium cacodylate); thereafter, samples were dehydrated twice and prepared for thin sectioning using previously published procedures. Ultrastructural examination was performed with a transmission electron microscope (Jeol JEM-1200 EX II, Peabody, Mass.).
Experiment 2: Characterization of the acrosome reaction inducing activity of the rhZP3 in dose- and sperm capacitation-dependency studies—Motile sperm fractions from 29 ejaculates of 11 different donors were incubated under capacitating conditions for 3 hours and assayed for acrosome reaction using FITC-PSA. Following swim-up, sperm aliquots were pre-incubated for 30 minutes with rhZP3 (30 ng/ml), A23187 (positive control), culture medium from non-transfected PA-cells (NT) or sperm culture medium (negative controls). This was the initially selected dose of rhZP3 to be tested as it had proven to effect significant inhibition of sperm-zona binding in the HZA.
The dose-dependent effect of rhZP3 on acrosome reaction was examined in the swim-up fractions obtained from four different donors. The fractions were capacitated for 3 hours and exposed for 30 min to rhZP3 at final concentrations of 0, 7.5, 15, 30, 60, 120, 240, 480, 960 and 1920 ng/ml. The capacitation-dependency of the acrosome reaction-inducing activity of rhZP3 was assessed in the swim-up fractions of four ejaculates from four different donors. Capacitation times included: 0 (immediately post-swim-up), 1, 4, 8, 12 and 24 hours. After the capacitation period, rhZP3 was added to the sperm suspension at a final concentration of 30 ng/ml.
In another set of experiments, three different ejaculates were used to compare the effects of the rhZP3 (tested at 500 ng/ml) with those of solubilized zonae pellucidae and the calcium ionophore. Further, the induction of the acrosome reaction was assessed in parallel with FITC-PSA and transmission electron microscopy. The goal of these studies was to compare the morphological features of the acrosome reaction between agonists and also between the agonist-induced and basal exocytosis rates.

human sperm [4] = conditions: Dong et al 2000; cited from earlier work
[5] = Isoelectric focusing electrophoresis; assay type: physicochemical; conditions: ampholytes pH 3-10 and pH 4-8
Description: For further biochemical analysis, isoelectric focusing electrophoresis was performed. Approximately five microgram of recombinant ZP3 was loaded into an isoelectrophoresis tube with ampholytes (pH 3-10) in a wide range, and ampholytes (pH 4-8) in a narrow range. The same amount protein sample isolated from the PA-1 cells without transfected with hZP3 cDNA was used as a control.

B1: rhZP3: recombinant human zona pellucida protein 3 with six-histidine tail, expressed in human ovarian PA-1 cells; secreted glycoprotein of approximately 65 Kd (protein)
chain: QPLWLLQGGASHPETSVQPVLVECQEATLMVMVSKDLFGTGKLIRAADLTLGPEACEPLVSMDTEDVVRFEVGLHECGNSMQVTDDALVYSTFLLHDPRPVGNLSIVRTNRAEIPIECRYPRQGNVSSQAILPTWLPFRTTVFSEEKLTFSLRLMEENWNAEKRSPTFHLGDAAHLQAEIHTGSHVPLRLFVDHCVATPTPDQNASPYHTIVDFHGCLVDGLTDASSAFKVPRPGPDTLQFTVDVFHFANDSRNMIYITCHLKVTLAEQDPDELNKACSFSKPSNSWFPVEGSADICQCCNKGDCGTPSHSRRQPHVMSQWSRSASRNHHHHHH
Q: With B1 as the molecule, how does the “range of maximal effect, ligand activity” value [1] read?
A: 30-1,000 ng/ml

Q: What about the “inhibition of sperm-ZP binding” value ([2]; 30 ng/ml, sperm pre-incubated 30 min) of the same molecule?
A: approximately 60%

Q: What about the “HZI (Mean ± SEM)” value ([2]; test reagent 30 ng/ml versus control 30 ng/ml NT) of the same molecule?
A: 44.5 (3.6)

Q: And the “HZI (Mean ± SEM)” value ([2]; test reagent 30 ng/ml versus control HTF/0.5% HSA, 30 min pre-incubation, 4 h with hemizona)?
A: 43.6 (3.3)

Q: What about the “concentration of highest acrosome reaction-inducing activity” value (human sperm [3]) of the same molecule?
A: 0.5 to 2 µg/mL

Q: And the “concentration range of highest stimulation (maximal effects) of acrosome reaction” value (human sperm [3])?
A: 500-2,000 ng/ml

Q: And the “potency relative to CHO cell product” value (human sperm [3]; 0.5-2 μg/ml versus 15-20 μg/ml)?
A: at least 10 times

Q: And the “minimally effective dose, induction of the acrosome reaction” value (human sperm [3]; 3 h capacitation, 30 min exposure)?
A: 30 ng/mL

Q: And the “highest stimulation of acrosome reaction, increase from baseline conditions” value (human sperm [3]; in the range of 500-2,000 ng/ml)?
A: approximately 210%

Q: And the “capacitation time of maximal stimulation of acrosome reaction” value (human sperm [3]; rhZP3 30 ng/ml)?
A: 8 to 10 h

Q: And the “live, acrosome reacted sperm” value (human sperm [3]; rhZP3 30 ng/ml, A23187 5 μM, 3 h capacitation, 30 min exposure)?
A: 19±4.1%

Q: And the “induction of the acrosome reaction” value (human sperm [3]; rhZP3 500 ng/ml, solubilized zona 4 zona/10 μl, A23187 5 μM)?
A: 28.2±5.6%

Q: What about the “range of maximal effect, acrosome reaction-inducing activity” value (human sperm [4]) of the same molecule?
A: 30-1,000 ng/ml

Q: What about the “isoelectric point (PI)” value [5] of the same molecule?
A: 4.60±0.05 and ~5.60

Q: What about the “isoelectric point (PI)” value ([5]; listed as recombinant human ZP3) of the same molecule?
A: 4.6±0.05

Q: And the “sperm motion parameters, treatment versus control” value (sperm)?
A: not significantly different
